From publication PMC4820785 (Nature Communications, 2016)

Target: T1, Ssa1 (UniProt P10591 1-642)
T1 construct: also called a member of the Hsp70 family (Ssa1); Saa1
Experiment: ThT aggregation kinetics, global
Conditions: both partners purified

T1 sequence (P10591 whole entry): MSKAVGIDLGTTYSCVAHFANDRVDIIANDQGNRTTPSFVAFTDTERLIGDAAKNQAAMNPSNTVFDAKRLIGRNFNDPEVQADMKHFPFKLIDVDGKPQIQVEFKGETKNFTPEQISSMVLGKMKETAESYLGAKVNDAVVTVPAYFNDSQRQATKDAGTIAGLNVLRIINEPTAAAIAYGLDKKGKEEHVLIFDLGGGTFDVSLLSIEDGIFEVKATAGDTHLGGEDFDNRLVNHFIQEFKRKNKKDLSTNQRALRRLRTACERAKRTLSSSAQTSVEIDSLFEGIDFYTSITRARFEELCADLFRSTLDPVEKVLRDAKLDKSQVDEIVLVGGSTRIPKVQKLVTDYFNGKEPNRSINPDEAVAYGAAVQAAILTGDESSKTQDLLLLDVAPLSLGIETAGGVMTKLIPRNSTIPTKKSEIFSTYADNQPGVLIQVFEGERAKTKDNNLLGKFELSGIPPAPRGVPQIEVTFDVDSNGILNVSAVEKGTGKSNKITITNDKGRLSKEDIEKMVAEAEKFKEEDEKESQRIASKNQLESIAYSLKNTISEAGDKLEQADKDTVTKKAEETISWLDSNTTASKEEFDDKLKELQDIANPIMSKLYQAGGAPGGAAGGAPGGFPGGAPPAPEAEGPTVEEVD

B1: yeast prion protein Ure2p (natural protein, UniProt P23202 1-354, looked up)
chain: MMNNNGNQVSNLSNALRQVNIGNRNSNTTTDQSNINFEFSTGVNNNNNNNSSSNNNNVQNNNSGRNGSQNNDNENNIKNTLEQHRQQQQAFSDMSHVEYSRITKFFQEQPLEGYTLFSHRSAPNGFKVAIVLSELGFHYNTIFLDFNLGEHRAPEFVSVNPNARVPALIDHGMDNLSIWESGAILLHLVNKYYKETGNPLLWSDDLADQSQINAWLFFQTSGHAPMIGQALHFRYFHSQKIASAVERYTDEVRRVYGVVEMALAERREALVMELDTENAAAYSAGTTPMSQSRFFDYPVWLVGDKLTIADLAFVPWNNVVDRIGINIKIEFPEVYKWTKHMMRRPAVIKALRGE
notes: also called prion Ure2p
Ka: 300000 M⁻¹
